{"source": "the RNAGym collection of RNA variant scans (doi:10.1093/nar/gkz1192)", "parents": {"B1": {"name": "CPEB3 Ribozyme (parent)", "chain": "UAACAGGGGGCCACAGCAGAAGCGUUCACGUCGCAGCCCCUGUCAGAUUCUGGUGAAUCUGCGAAUUCUGCUGUAUAUCUC"}}}
{"variants_of": "B1", "assay": "self-cleavage, relative activity (ratio to wild type); higher = more cleavage; in vitro, sequencing", "summary_of_the_method": "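Relative activity compares each variant's cleaved/total read fraction with that of the unmutated ribozyme. To get these fractions, barcoded CPEB3 ribozyme libraries from rounds of error-prone PCR were transcribed with T7 RNA polymerase for 5 hours at 37°C and then given 15 min of DNase I treatment before EDTA was added. The RNAs were reverse transcribed with template switching and sequenced on Illumina, and DNA sequencing linked barcodes to variants. A minimum of 5 reads applied, and three batches were averaged.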"}
{"variant": "A21C A45U", "self-cleavage": 0.13}
{"variant": "A20U U78G", "self-cleavage": 0.26}
{"variant": "A20U U78C", "self-cleavage": 0.32}
{"variant": "A20U U78A", "self-cleavage": 0.43}
{"variant": "A20U C34U", "self-cleavage": 0.34}
{"variant": "A20U G46A", "self-cleavage": 0.07}
{"variant": "A20U G46U", "self-cleavage": 0.18}
{"variant": "A21G A35G", "self-cleavage": 1.16}
{"variant": "A21G A35U", "self-cleavage": 0.27}
{"variant": "A21G A35C", "self-cleavage": 0.13}
{"variant": "A20U C27U", "self-cleavage": 0.18}
{"variant": "A20U C27A", "self-cleavage": 0.27}
{"variant": "A20U C27G", "self-cleavage": 0.19}
{"variant": "A21U C29A", "self-cleavage": 0.21}
{"variant": "A21U C29U", "self-cleavage": 0.3}
{"variant": "A20U U72A", "self-cleavage": 0.25}
{"variant": "A20U U72C", "self-cleavage": 0.34}
{"variant": "A20U U72G", "self-cleavage": 0.13}
{"variant": "A20U A57U", "self-cleavage": 0.58}
{"variant": "A20U A57G", "self-cleavage": 0.23}
{"variant": "A21C U69A", "self-cleavage": 0.17}
{"variant": "A21C U69C", "self-cleavage": 0.2}
{"variant": "A21C U67C", "self-cleavage": 0.1}
{"variant": "A21G A45C", "self-cleavage": 0.25}
{"variant": "A21G A45G", "self-cleavage": 0.44}
{"variant": "A21G A45U", "self-cleavage": 0.32}
{"variant": "A21G C37U", "self-cleavage": 0.39}
{"variant": "A21G C37A", "self-cleavage": 0.42}
{"variant": "A21G C37G", "self-cleavage": 0.19}
{"variant": "A21G C38U", "self-cleavage": 0.57}
{"variant": "A21G C38G", "self-cleavage": 0.26}
{"variant": "A21G C38A", "self-cleavage": 0.33}
{"variant": "A20U G53A", "self-cleavage": 0.28}
{"variant": "A21G C68U", "self-cleavage": 0.43}
{"variant": "A21G C68A", "self-cleavage": 0.17}
{"variant": "A21G C68G", "self-cleavage": 0.2}
{"variant": "A21C G46A", "self-cleavage": 0.37}
{"variant": "A21C U78C", "self-cleavage": 0.37}
{"variant": "A21G U72C", "self-cleavage": 0.65}
{"variant": "A21G U72G", "self-cleavage": 0.53}
{"variant": "A21G U72A", "self-cleavage": 0.44}
{"variant": "A20U U26A", "self-cleavage": 0.34}
{"variant": "A20U U26C", "self-cleavage": 0.27}
{"variant": "A21G U43A", "self-cleavage": 0.75}
{"variant": "A21G U43C", "self-cleavage": 0.33}
{"variant": "A21G U43G", "self-cleavage": 0.14}
{"variant": "A21U C40U", "self-cleavage": 0.15}
{"variant": "A20U U76A", "self-cleavage": 0.25}
{"variant": "A20U U76C", "self-cleavage": 0.36}
{"variant": "A21C", "self-cleavage": 0.24}
{"variant": "A21G", "self-cleavage": 0.64}
{"variant": "A21U", "self-cleavage": 0.37}
{"variant": "A21C A56U", "self-cleavage": 0.16}
{"variant": "A21C A56G", "self-cleavage": 0.3}
{"variant": "A21G U49C", "self-cleavage": 0.27}
{"variant": "A21G U49G", "self-cleavage": 0.23}
{"variant": "A21G U49A", "self-cleavage": 0.48}
{"variant": "A21G G33A", "self-cleavage": 0.33}
{"variant": "A21G G33U", "self-cleavage": 0.19}
{"variant": "A21G G33C", "self-cleavage": 0.14}
{"variant": "A21C C23G", "self-cleavage": 0.16}
{"variant": "A21G U66C", "self-cleavage": 1.05}
{"variant": "A21G U66A", "self-cleavage": 0.42}
{"variant": "A21G U66G", "self-cleavage": 0.44}
{"variant": "A21G C39G", "self-cleavage": 0.37}
{"variant": "A21G C39A", "self-cleavage": 0.1}
{"variant": "A21G C39U", "self-cleavage": 0.3}
{"variant": "A21G U54G", "self-cleavage": 0.4}
{"variant": "A21G U54A", "self-cleavage": 0.71}
{"variant": "A21G U54C", "self-cleavage": 0.53}
{"variant": "A21G A47U", "self-cleavage": 0.36}
{"variant": "A21G A47G", "self-cleavage": 0.42}
{"variant": "A21U C23G", "self-cleavage": 0.07}
{"variant": "A21U C23U", "self-cleavage": 0.24}
{"variant": "A21U C23A", "self-cleavage": 0.22}
{"variant": "A21U C27U", "self-cleavage": 0.14}
{"variant": "A21U C27G", "self-cleavage": 0.07}
{"variant": "A21G A64C", "self-cleavage": 0.37}
{"variant": "A21G A64G", "self-cleavage": 0.42}
{"variant": "A21G A64U", "self-cleavage": 0.26}
{"variant": "A20U C29U", "self-cleavage": 0.15}
{"variant": "A20U U80C", "self-cleavage": 0.37}
{"variant": "A20U U80A", "self-cleavage": 0.45}
{"variant": "A20U U25A", "self-cleavage": 0.26}
{"variant": "A20U U25G", "self-cleavage": 0.15}
{"variant": "A20U U25C", "self-cleavage": 0.31}
{"variant": "A20U U51A", "self-cleavage": 0.25}
{"variant": "A20U U51C", "self-cleavage": 0.32}
{"variant": "A21U C44A", "self-cleavage": 0.11}
{"variant": "A21C A65G", "self-cleavage": 0.34}
{"variant": "A20U A75U", "self-cleavage": 0.28}
{"variant": "A20U A75G", "self-cleavage": 0.2}
{"variant": "A21G G52A", "self-cleavage": 0.72}
{"variant": "A21G U41G", "self-cleavage": 0.29}
{"variant": "A21G U41C", "self-cleavage": 0.66}
{"variant": "A21G U41A", "self-cleavage": 0.3}
{"variant": "A20U G73A", "self-cleavage": 0.67}
{"variant": "A20U G33C", "self-cleavage": 0.15}
{"variant": "A20U U58C", "self-cleavage": 0.28}
{"variant": "A21G A56U", "self-cleavage": 0.41}
{"variant": "A21G A56C", "self-cleavage": 0.36}
{"variant": "A21G A56G", "self-cleavage": 0.4}
{"variant": "A21U A57G", "self-cleavage": 0.33}
{"variant": "A21U C32A", "self-cleavage": 0.14}
{"variant": "A21G C23A", "self-cleavage": 0.32}
{"variant": "A21G C23U", "self-cleavage": 0.2}
{"variant": "A21G C23G", "self-cleavage": 0.37}
{"variant": "A21C U58A", "self-cleavage": 0.16}
{"variant": "A21C A35G", "self-cleavage": 0.39}
{"variant": "A21G C32G", "self-cleavage": 0.23}
{"variant": "A21G C32U", "self-cleavage": 0.22}
{"variant": "A21G C32A", "self-cleavage": 0.23}
{"variant": "A20U C68U", "self-cleavage": 0.28}
{"variant": "A21G C27A", "self-cleavage": 0.14}
{"variant": "A21G C27U", "self-cleavage": 0.18}
{"variant": "A21G C50A", "self-cleavage": 0.57}
{"variant": "A21G C50U", "self-cleavage": 0.62}
{"variant": "A21C U76A", "self-cleavage": 0.1}
{"variant": "A21C A47G", "self-cleavage": 0.3}
{"variant": "A20U C81U", "self-cleavage": 0.32}
{"variant": "A20U G22U", "self-cleavage": 0.1}
{"variant": "A20U G22A", "self-cleavage": 0.2}
{"variant": "A20U C40G", "self-cleavage": 0.27}
{"variant": "A20U C40A", "self-cleavage": 0.23}
{"variant": "A20U C40U", "self-cleavage": 0.34}
{"variant": "A21G U58C", "self-cleavage": 0.31}
{"variant": "A21G U58G", "self-cleavage": 0.39}
{"variant": "A21G U58A", "self-cleavage": 0.29}
{"variant": "A20U G42U", "self-cleavage": 0.13}
{"variant": "A20U G42A", "self-cleavage": 0.64}
{"variant": "A21G G24A", "self-cleavage": 0.24}
{"variant": "A21G G24C", "self-cleavage": 0.23}
{"variant": "A21G G24U", "self-cleavage": 0.44}
{"variant": "A20U U69G", "self-cleavage": 0.21}
{"variant": "A20U U69C", "self-cleavage": 0.15}
{"variant": "A20U U69A", "self-cleavage": 0.22}
{"variant": "A21U A77G", "self-cleavage": 0.37}
{"variant": "A21G U60G", "self-cleavage": 0.29}
{"variant": "A21G U60A", "self-cleavage": 0.32}
{"variant": "A21G U60C", "self-cleavage": 0.27}
{"variant": "A21G C62A", "self-cleavage": 0.2}
{"variant": "A21G C62U", "self-cleavage": 0.19}
{"variant": "A21G C62G", "self-cleavage": 0.22}
{"variant": "A21G G30C", "self-cleavage": 0.15}
{"variant": "A21G G30U", "self-cleavage": 0.21}
{"variant": "A21G G30A", "self-cleavage": 0.32}
{"variant": "A21G G46A", "self-cleavage": 0.42}
{"variant": "A21G G46C", "self-cleavage": 0.18}
{"variant": "A21G G46U", "self-cleavage": 0.36}
{"variant": "A20U U43A", "self-cleavage": 0.45}
{"variant": "A20U U43C", "self-cleavage": 0.29}
{"variant": "A21G A57U", "self-cleavage": 0.38}
{"variant": "A21G A57G", "self-cleavage": 0.49}
{"variant": "A21G U25G", "self-cleavage": 0.34}
{"variant": "A21G U25C", "self-cleavage": 0.29}
{"variant": "A21G U25A", "self-cleavage": 0.24}
{"variant": "A21C U41C", "self-cleavage": 0.13}
{"variant": "A20U G24U", "self-cleavage": 0.08}
{"variant": "A20U G24C", "self-cleavage": 0.4}
{"variant": "A20U G24A", "self-cleavage": 0.09}
{"variant": "A21G U74A", "self-cleavage": 1.03}
{"variant": "A21G U74C", "self-cleavage": 0.96}
{"variant": "A20U A65C", "self-cleavage": 0.1}
{"variant": "A20U A65G", "self-cleavage": 0.2}
{"variant": "A20U U60A", "self-cleavage": 0.41}
{"variant": "A20U U60G", "self-cleavage": 0.21}
{"variant": "A20U U60C", "self-cleavage": 0.19}
